Assay results taken from the supplement of paper PMC9112550, “Optimization of the antimicrobial peptide Bac7 by deep mutational scanning” (BMC Biology, 2022).

test system: Escherichia coli TOP10; assay: shrunken log2 fold change of peptide-encoding DNA abundance (4.5 h post-induction vs induction); higher = less antimicrobial activity (less host growth inhibition); details: time post-induction: 4.5 h; library: site-saturation at positions 5, 18, 19, 20
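Further: peptides expressed intracellularly from a pBAD plasmid library in pooled LB shake-flask culture, induced with 0.3% L-arabinose, DNA abundance read by NGS, three biological replicates, DESeq2 with apeglm shrinkage.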

Row | Sequence | shrunken log2 fold change
1 | RRIRHRPPRLPRPRPRPHDPPRP | -0.613
2 | RRIRHRPPRLPRPRPRPHDRPRP | -0.218
3 | RRIRHRPPRLPRPRPRPHDYPRP | -0.0577
4 | RRIRHRPPRLPRPRPRPHEKPRP | -0.00373
5 | RRIRHRPPRLPRPRPRPHFYPRP | -0.139
6 | RRIRHRPPRLPRPRPRPHGIPRP | -0.0284
7 | RRIRHRPPRLPRPRPRPHHEPRP | -0.0148
8 | RRIRHRPPRLPRPRPRPHHNPRP | -0.672
9 | RRIRHRPPRLPRPRPRPHIPPRP | -0.514
10 | RRIRHRPPRLPRPRPRPHKHPRP | -0.546
11 | RRIRHRPPRLPRPRPRPHLGPRP | 0.0478
12 | RRIRHRPPRLPRPRPRPHLNPRP | -0.00458
13 | RRIRHRPPRLPRPRPRPHLQPRP | -0.129
14 | RRIRHRPPRLPRPRPRPHLSPRP | -0.43
15 | RRIRHRPPRLPRPRPRPHLWPRP | -0.0776
16 | RRIRHRPPRLPRPRPRPHMIPRP | 0.13
17 | RRIRHRPPRLPRPRPRPHMLPRP | -0.0874
18 | RRIRHRPPRLPRPRPRPHNCPRP | -0.0289
19 | RRIRHRPPRLPRPRPRPHPQPRP | -0.185
20 | RRIRHRPPRLPRPRPRPHQKPRP | -0.0284
21 | RRIRHRPPRLPRPRPRPHSPPRP | -0.468
22 | RRIRHRPPRLPRPRPRPHVQPRP | -0.128
23 | RRIRHRPPRLPRPRPRPHWIPRP | -0.415
24 | RRIRHRPPRLPRPRPRPHWWPRP | 0.0507
25 | RRIRHRPPRLPRPRPRPHYEPRP | 0.0367

Row | Sequence | shrunken log2 fold change
26 | RRIRHRPPRLPRPRPRPHYFPRP | 0.00508
27 | RRIRHRPPRLPRPRPRPIAIPRP | 0.0123
28 | RRIRHRPPRLPRPRPRPIDAPRP | -0.105
29 | RRIRHRPPRLPRPRPRPIEKPRP | -0.00776
30 | RRIRHRPPRLPRPRPRPIEPPRP | -0.133
31 | RRIRHRPPRLPRPRPRPIGTPRP | -0.0693
32 | RRIRHRPPRLPRPRPRPIGYPRP | 0.0062
33 | RRIRHRPPRLPRPRPRPIHEPRP | -0.153
34 | RRIRHRPPRLPRPRPRPIHLPRP | -0.541
35 | RRIRHRPPRLPRPRPRPIIAPRP | -0.272
36 | RRIRHRPPRLPRPRPRPIIPPRP | -0.197
37 | RRIRHRPPRLPRPRPRPIIRPRP | -0.507
38 | RRIRHRPPRLPRPRPRPIIVPRP | -0.0935
39 | RRIRHRPPRLPRPRPRPINEPRP | -0.99
40 | RRIRHRPPRLPRPRPRPIPNPRP | 0.101
41 | RRIRHRPPRLPRPRPRPIPPPRP | -0.0356
42 | RRIRHRPPRLPRPRPRPIPWPRP | 0.0217
43 | RRIRHRPPRLPRPRPRPIRHPRP | -0.0447
44 | RRIRHRPPRLPRPRPRPIRKPRP | -0.583
45 | RRIRHRPPRLPRPRPRPIRNPRP | -0.387
46 | RRIRHRPPRLPRPRPRPIRRPRP | 0.0591
47 | RRIRHRPPRLPRPRPRPISLPRP | -0.234
48 | RRIRHRPPRLPRPRPRPISVPRP | -0.00149
49 | RRIRHRPPRLPRPRPRPITDPRP | -0.229
50 | RRIRHRPPRLPRPRPRPITPPRP | -0.538

Row | Sequence | shrunken log2 fold change
51 | RRIRHRPPRLPRPRPRPIVGPRP | -0.476
52 | RRIRHRPPRLPRPRPRPIVMPRP | -0.012
53 | RRIRHRPPRLPRPRPRPIWMPRP | -0.0859
54 | RRIRHRPPRLPRPRPRPIWPPRP | 0.0213
55 | RRIRHRPPRLPRPRPRPIWWPRP | 0.0995
56 | RRIRHRPPRLPRPRPRPKEHPRP | 0.0812
57 | RRIRHRPPRLPRPRPRPKEIPRP | -0.00142
58 | RRIRHRPPRLPRPRPRPKFCPRP | -0.132
59 | RRIRHRPPRLPRPRPRPKFIPRP | -0.192
60 | RRIRHRPPRLPRPRPRPKFKPRP | 0.0646
61 | RRIRHRPPRLPRPRPRPKHRPRP | 0.376
62 | RRIRHRPPRLPRPRPRPKILPRP | 0.0673
63 | RRIRHRPPRLPRPRPRPKINPRP | -0.817
64 | RRIRHRPPRLPRPRPRPKIQPRP | -0.484
65 | RRIRHRPPRLPRPRPRPKKAPRP | 0.0601
66 | RRIRHRPPRLPRPRPRPKKQPRP | -0.0264
67 | RRIRHRPPRLPRPRPRPKLDPRP | 0.225
68 | RRIRHRPPRLPRPRPRPKLVPRP | -0.017
69 | RRIRHRPPRLPRPRPRPKPSPRP | 0.411
70 | RRIRHRPPRLPRPRPRPKQLPRP | -0.553
71 | RRIRHRPPRLPRPRPRPKQMPRP | -0.0152
72 | RRIRHRPPRLPRPRPRPKQSPRP | -0.248
73 | RRIRHRPPRLPRPRPRPKSYPRP | -0.245
74 | RRIRHRPPRLPRPRPRPKTEPRP | -0.0292
75 | RRIRHRPPRLPRPRPRPKWNPRP | -0.206
